Laboratory results taken from patent publication US20210023094A1 (PSMA DEVELOPMENT, published 2021).

B1: PSMA ADC (AB-PG1-XG1-006 conjugated to maleimidocaproyl-valine-citrulline-p-aminobenzylcarbamate-monomethyl auristatin E), Example 1 (antibody, V domains shown)
VH: QVQLVESGGGVVQPGRSLRLSCAASGFAFSRYGMHWVRQAPGKGLEWVAVIWYDGSNKYYADSVKGRFTISRDNSKNTQYLQMNSLRAEDTAVYYCARGGDFLYYYYYGMDVWGQGTTVTVSS
VL: DIQMTQSPSSLSASVGDRVTITCRASQGISNYLAWYQQKTGKVPKFLIYEASTLQSGVPSRFSGGGSGTDFTLTISSLQPEDVATYYCQNYNSAPFTFGPGTKVDIK
modifications: vcMMAE on cysteine thiols of reduced disulfides; 3.0-3.5 drugs per mAb in total
B2: PSMA mAb vcMMAF (conjugate 699028B), Example 2 (antibody, V domains shown)
VH: QVQLVESGGGVVQPGRSLRLSCAASGFAFSRYGMHWVRQAPGKGLEWVAVIWYDGSNKYYADSVKGRFTISRDNSKNTQYLQMNSLRAEDTAVYYCARGGDFLYYYYYGMDVWGQGTTVTVSS
VL: DIQMTQSPSSLSASVGDRVTITCRASQGISNYLAWYQQKTGKVPKFLIYEASTLQSGVPSRFSGGGSGTDFTLTISSLQPEDVATYYCQNYNSAPFTFGPGTKVDIK
modifications: vcMMAF via thioether on interchain cysteine thiols; 4.4 drugs per mAb in total
B3: PSMA mAb mcMMAF (conjugate 699028C), Example 2 (antibody, V domains shown)
VH: QVQLVESGGGVVQPGRSLRLSCAASGFAFSRYGMHWVRQAPGKGLEWVAVIWYDGSNKYYADSVKGRFTISRDNSKNTQYLQMNSLRAEDTAVYYCARGGDFLYYYYYGMDVWGQGTTVTVSS
VL: DIQMTQSPSSLSASVGDRVTITCRASQGISNYLAWYQQKTGKVPKFLIYEASTLQSGVPSRFSGGGSGTDFTLTISSLQPEDVATYYCQNYNSAPFTFGPGTKVDIK
modifications: mcMMAF via thioether on interchain cysteine thiols; 4.4 drugs per mAb in total
B4: PSMA mAb vcMMAE (conjugate 699028A), Example 2 (antibody, V domains shown)
VH: QVQLVESGGGVVQPGRSLRLSCAASGFAFSRYGMHWVRQAPGKGLEWVAVIWYDGSNKYYADSVKGRFTISRDNSKNTQYLQMNSLRAEDTAVYYCARGGDFLYYYYYGMDVWGQGTTVTVSS
VL: DIQMTQSPSSLSASVGDRVTITCRASQGISNYLAWYQQKTGKVPKFLIYEASTLQSGVPSRFSGGGSGTDFTLTISSLQPEDVATYYCQNYNSAPFTFGPGTKVDIK
modifications: vcMMAE via thioether on interchain cysteine thiols; 4.3 drugs per mAb in total

Columns and labels:
[1] = molecular target: T1, prostate-specific membrane antigen (PSMA), on cells (3T3-PSMA, C4-2, LNCaP) (Homo sapiens (Human), UniProt Q04609 1-750); assay: cell-based or functional assay
[2] = molecular target: T1, prostate-specific membrane antigen …; assay: cell-based or functional assay; remark: listed apart in the source

T1 sequence (Q04609 whole entry): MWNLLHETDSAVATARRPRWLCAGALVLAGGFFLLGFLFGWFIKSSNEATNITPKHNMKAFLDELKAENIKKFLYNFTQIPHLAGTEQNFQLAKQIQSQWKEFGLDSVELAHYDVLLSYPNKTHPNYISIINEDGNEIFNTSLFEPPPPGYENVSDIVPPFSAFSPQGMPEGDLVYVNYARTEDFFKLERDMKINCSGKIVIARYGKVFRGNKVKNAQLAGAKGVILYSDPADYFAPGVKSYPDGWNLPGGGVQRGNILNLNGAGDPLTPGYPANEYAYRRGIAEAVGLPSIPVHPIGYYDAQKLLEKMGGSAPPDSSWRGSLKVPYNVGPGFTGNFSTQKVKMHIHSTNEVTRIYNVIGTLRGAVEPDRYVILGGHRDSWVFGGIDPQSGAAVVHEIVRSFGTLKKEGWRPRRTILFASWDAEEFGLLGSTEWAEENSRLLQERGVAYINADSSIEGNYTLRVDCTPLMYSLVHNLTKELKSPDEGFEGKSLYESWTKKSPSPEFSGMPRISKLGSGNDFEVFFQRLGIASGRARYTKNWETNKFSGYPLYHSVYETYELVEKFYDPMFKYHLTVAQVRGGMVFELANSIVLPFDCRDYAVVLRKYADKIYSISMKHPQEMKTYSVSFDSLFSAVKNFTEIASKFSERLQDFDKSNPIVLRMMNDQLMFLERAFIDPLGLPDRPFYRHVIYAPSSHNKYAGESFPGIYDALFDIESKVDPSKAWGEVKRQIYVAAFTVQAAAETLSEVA

| Binder | in vitro cytotoxicity IC50 on 3T3-PSMA cells (Alamar Blue, 4 days) [1] [pM] | in vitro cytotoxicity IC50 on C4-2 cells (Alamar Blue, 4 days) [1] [pM] | in vitro cytotoxicity IC50 on LNCaP cells (Alamar Blue, 4 days) [1] [pM] | in vitro potency IC50 on C4-2 cells (Alamar Blue, 4 days) [2] [pM] |
| --- | --- | --- | --- | --- |
| B1 | 208 | 65 | 83 | – |
| B2 | – | – | – | 11 |
| B3 | – | – | – | 42 |
| B4 | – | – | – | 60 |
